# In patent US20170260257A1 (GREEN CROSS, published 2017):
# Key:
# [1] = biological target: G145R HBsAg mutant of patient B** (HBV recurred after liver transplantation) (hepatitis B virus); test: sandwich ELISA: plate coated with the antibody (immobilized antibody rHBIG), patient blood, detection with sheep anti-HBsAg/peroxidase
# [2] = biological target: G145R HBsAg mutant of patient L** (HBV recurred after liver transplantation) (hepatitis B virus); test: as above
# [3] = biological target: G145R HBsAg mutant of patient C** (HBV recurred after liver transplantation) (hepatitis B virus); test: as above
# [4] = biological target: T1, G145R HBsAg mutant of patient S** (HBV recurred after liver transplantation) (hepatitis B virus); test: as above
# T1 construct: Position 145 of the HBV surface protein
# [5] = biological target: G145R HBsAg mutant of patient W** (HBV recurred after liver transplantation) (hepatitis B virus); test: as above
# [6] = biological target: HBsAg of YMDD mutant virus, patient blood sample YMDD #3 (hepatitis B virus); test: sandwich ELISA: plate coated with the antibody, patient blood, detection with sheep anti-HBsAg/peroxidase
# [7] = biological target: HBsAg of YMDD mutant virus, patient blood sample YMDD #9 (hepatitis B virus); test: as above
# [8] = biological target: HBsAg of YMDD mutant virus, patient blood sample YMDD #8 (hepatitis B virus); test: as above
# [9] = biological target: HBsAg of YMDD mutant virus, patient blood sample YMDD #12 (hepatitis B virus); test: as above
# [10] = biological target: HBsAg of YMDD mutant virus, patient blood sample YMDD #6 (hepatitis B virus); test: as above
# [11] = biological target: HBsAg of YMDD mutant virus, patient blood sample YMDD #4 (hepatitis B virus); test: as above
# [12] = biological target: HBsAg of YMDD mutant virus, patient blood sample YMDD #7 (hepatitis B virus); test: as above
# [13] = biological target: HBsAg of YMDD mutant virus, patient blood sample YMDD #1 (hepatitis B virus); test: as above
# [14] = biological target: HBsAg of YMDD mutant virus, patient blood sample YMDD #13 (hepatitis B virus); test: as above
# [15] = biological target: HBsAg of YMDD mutant virus, patient blood sample YMDD #10 (hepatitis B virus); test: as above
# [16] = biological target: HBsAg of YMDD mutant virus, patient blood sample YMDD #5 (hepatitis B virus); test: as above
# [17] = biological target: HBsAg of YMDD mutant virus, patient blood sample YMDD #14 (hepatitis B virus); test: as above
# [18] = biological target: HBsAg of YMDD mutant virus, patient blood sample YMDD #11 (hepatitis B virus); test: as above
# [19] = biological target: HBsAg mutant of patient CH 33 (chronic hepatitis) (hepatitis B virus); test: as above
# [20] = biological target: HBsAg mutant of patient CH 75 (chronic hepatitis) (hepatitis B virus); test: as above
# [21] = biological target: HBsAg mutant of patient LC 53 (liver cirrhosis) (hepatitis B virus); test: as above
# [22] = biological target: HBsAg mutant of patient HCC 11 (hepatocellular carcinoma) (hepatitis B virus); test: as above
# [23] = biological target: HBsAg mutant of patient HCC 1 (hepatocellular carcinoma) (hepatitis B virus); test: as above
# [24] = biological target: HBsAg mutant of patient HCC 22 (hepatocellular carcinoma) (hepatitis B virus); test: as above
# [25] = biological target: HBsAg mutant of patient LC 59 (liver cirrhosis) (hepatitis B virus); test: as above
# [26] = biological target: HBsAg mutant of patient LC 32 (liver cirrhosis) (hepatitis B virus); test: as above
# [27] = biological target: HBsAg mutant of patient CH 34 (chronic hepatitis) (hepatitis B virus); test: as above
# [28] = biological target: HBsAg mutant of patient HCC 94 (hepatocellular carcinoma) (hepatitis B virus); test: as above
# [29] = biological target: HBsAg mutant of patient CH 32 (chronic hepatitis) (hepatitis B virus); test: as above
# [30] = biological target: T2, HBsAg mutant of patient CH 15 (chronic hepatitis) (hepatitis B virus); test: as above
# T2 construct: Positions count on the S (surface) protein
# [31] = biological target: HBsAg mutant of patient LC 98 (liver cirrhosis) (hepatitis B virus); test: as above
# [32] = biological target: HBsAg mutant of patient CH 62 (chronic hepatitis) (hepatitis B virus); test: as above
binder,measurement,setting,value
"the antibody of the present invention comprising a heavy-chain variable region having amino acid sequence of SEQ ID NO: 2 and a light-chain variable region … (antibody, V domains shown, Captured with goat anti-human IgG (Fc specific) agarose and compared with a human IgG1 isotype control, so a human IgG; also called rHBIG) VH: EVQLVESGGGLVKPGGSLRLSCSASGFSLTKYKMTWVRQAPGKGLEWVSSISSTSRDIDYADSVKGRFTISRDNAKNSLFLQMSSLRVDDTAVYYCTRDGWLWGWDVRSNYYYNALDVWGQGTTVTVSS VL: DIVVTQSPSSLSASVGDRVTITCRASQGIYNSIAWYQQKPGKAPKLLLYSTSTLLSGVPSRFSGSGSGTDYTLTITNLQPEDFATYYCQQYFVTPETFGQGTKLEIKR",ELISA signal (name and unit not given),[1],3.08
same,ELISA signal (name and unit not given),[2],2.72
same,ELISA signal (name and unit not given),[3],2.47
same,ELISA signal (name and unit not given),[4],2.53
same,ELISA signal (name and unit not given),[5],2.66
same,A450,[6],0.957 A450
same,A450,[7],0.834 A450
same,A450,[8],1.14 A450
same,A450,[9],0.876 A450
same,A450,[10],1.04 A450
same,A450,[11],1.02 A450
same,A450,[12],1.1 A450
same,A450,[13],1.16 A450
same,A450,[14],1.07 A450
same,A450,[15],1.13 A450
same,A450,[16],0.356 A450
same,A450,[17],0.815 A450
same,A450,[18],0.786 A450
same,ELISA,[19],2.83
same,ELISA,[20],2.93
same,ELISA,[21],3.5
same,ELISA,[22],3.36
same,ELISA,[23],3.61
same,ELISA,[24],3.52
same,ELISA,[25],3.63
same,ELISA,[26],2.73
same,ELISA,[27],1.37
same,ELISA,[28],3.56
same,ELISA,[29],2.95
same,ELISA,[30],3.06
same,ELISA,[31],3.55
same,ELISA,[32],3.08
